Data from PMC8855710.
Each block holds one substance with its values, some of them ahead of it.

Assays:
[1] = biological target: PL: binary complex of monomeric htt^ex1Q7 with Fyn SH3 (not stated | Gallus gallus) (UniProt Q05876); assay: NMR titration
[2] = biological target: htt^ex1Q7 (huntingtin exon-1 polypeptide with seven glutamines); assay: NMR titration
[3] = biological target: huntingtin exon 1 (httex1Q7) dimer exon 1 (Homo sapiens) (UniProt P42858); conditions: cited from earlier work

- stoichiometry N [1]: 2
Substance: PL: binary complex of monomeric htt^ex1Q7 with Fyn SH3 (from UniProt Q05876 85-135)

- Kd [2]: 210 µM
Substance: Gallus gallus tyrosine kinase Fyn SH3 domain (wild type) (from UniProt Q05876 85-135) (domain or fragment)

Substance: huntingtin exon 1 (httex1Q7) dimer exon 1 (from UniProt P42858)
- Kd [3]: 25 µM
